We go through one sequence from patent publication US11787839B2, “Targeting α2δ-1-bound glutamate receptors for treating diseases and disorders” (Board of Regents, The University of Texas System, priority 2017, dated 2023).

Holding throughout (format): cell-based
The target in one assay is T1, α2δ-1-GluN1 interaction (Rattus norvegicus, UniProt P35439+Q00959).
T1 construct: expressed in transfected cells; host or cells: HEK293
As to conditions: HEK293; 0.01, 0.1, or 1 mM peptide.

Assay [1] deals with T2, NMDARs of spinal dorsal horn neurons (Rattus norvegicus, UniProt P35439+Q00959+Q00960).
T2 construct: from tissue; host or cells: rat lumbar spinal cord slices (lamina II neurons) and synaptosomes made from them
Briefly: Electrophysiological recordings in rat spinal cord slices (SNL, Cacna2d1 vector). As to conditions: SNL rats; peptides 1 mM for 60 min. How it is done: Electrophysiological recordings in spinal cord slices: Anesthesia was induced in rats or mice with isoflurane and removed the lumbar spinal cords via laminectomy. […] The spinal cord slices were placed in a glass bottom chamber and continuously perfused with Krebs solution at 5.0 ml/min at 34° C. maintained by an inline solution heater and a temperature controller.
It becomes impossible to visualize neurons in other laminas in adult (>10-week-old) rodent spinal cords because of heavy laminar myelination. […] The tip of the puff pipette was placed 150 μm away from the recorded neuron.
In some experiments, the attached dorsal root was electrically stimulated with a stimulating electrode (0.5 ms, 0.6 mA and 0.1 Hz) to evoke monosynaptic excitatory postsynaptic currents (EPSCs). The α-amino-3-hydroxy-5-methyl-4-isoxazolepropionic acid receptor (AMPAR)-mediated EPSCs were recorded at a holding potential of −60 mV in the presence of 10 μM bicuculline and 1 μM strychnine, whereas NMDAR-mediated EPSCs were recorded at +40 mV in the presence of 10 μM 6-cyano-7-nitroquinoxaline-2,3-dione, 10 μM bicuculline, and 1 μM strychnine. […] All signals were recorded using an amplifier (MultiClamp700B; Axon Instruments Inc., Union City, Calif.), filtered at 1-2 kHz, digitized at 10 kHz, and stored for off-line analysis. Final spinal cord slice recordings were performed 3-4 weeks after the nerve injury or sham surgery. In all electrophysiological experiments, 3-5 animals were used for each recording protocol, and only 1 neuron was recorded in each spinal cord slice.

Another assay concerns the target T3, α2δ-1-Cav2.2 association (Mus musculus, UniProt O08532+O55017).
T3 construct: from tissue; host or cells: mouse brain slices subjected to OGD, membrane extracts
Briefly: Co-IP of α2δ-1 and Cav2.2 in mouse brain slices subjected to OGD. Particulars: 1 μM for 30 min. How it is done: FIGS. 22A-22D: α2δ-1-bound NMDARs contribute to brain injury and neurological deficit caused by MCAO in the brain. (A) Upper: Original gel images of coimmunoprecipitation (co-IP) analysis show the interaction between α2δ-1 and GluN1 in two samples from mouse brain tissues; Lower: Effect of α2δ-1Tat peptide (1 μM for 60 min) on the α2δ-1-GluN1 protein complex in mouse brain tissues (n=6 mice per group). (B) Representative gel images and quantification of co-IP analysis show the effect of OGD on the α2δ-1-GluN1 or α2δ-1-Cav2.2 association in mouse brain tissues (n=6 mice per group). IgG and input were used as negative and positive controls, respectively. (C) Original gel images and quantification of co-IP analysis show the effect of α2δ-1Tat peptide (P) and control peptide (C; both 1 μM for 30 min) on the α2δ-1-GluN1 or α2δ-1-Cav2.2 association in mouse brain slices subjected to OGD (O, n=6 mice per group). (D) Neurological severity scores (left) and representative TTC staining and quantification (right) of brain infarct volume in MCAO mice treated with α2δ-1Tat peptide or control peptide (both 200 μg/kg, i.p.) at 15 min before MCAO and immediately before reperfusion (n=8 mice per group). Data are shown as means±SEM. *p<0.05, **p<0.01 compared with the control peptide- or vehicle-treated group (paired Student's t-test for panels B-D and F; Mann-Whitney test for panel E). […]

In assay [2] the target is T4, NMDARs of hippocampal CA1 pyramidal neurons (Mus musculus, UniProt O08532+P35438).
T4 construct: from tissue; host or cells: mouse brain slices (hippocampal CA1, hypothalamic PVN, brain tissue membrane extracts)
T4 sequence (O08532 25-956 limits assumed, other chains not shown): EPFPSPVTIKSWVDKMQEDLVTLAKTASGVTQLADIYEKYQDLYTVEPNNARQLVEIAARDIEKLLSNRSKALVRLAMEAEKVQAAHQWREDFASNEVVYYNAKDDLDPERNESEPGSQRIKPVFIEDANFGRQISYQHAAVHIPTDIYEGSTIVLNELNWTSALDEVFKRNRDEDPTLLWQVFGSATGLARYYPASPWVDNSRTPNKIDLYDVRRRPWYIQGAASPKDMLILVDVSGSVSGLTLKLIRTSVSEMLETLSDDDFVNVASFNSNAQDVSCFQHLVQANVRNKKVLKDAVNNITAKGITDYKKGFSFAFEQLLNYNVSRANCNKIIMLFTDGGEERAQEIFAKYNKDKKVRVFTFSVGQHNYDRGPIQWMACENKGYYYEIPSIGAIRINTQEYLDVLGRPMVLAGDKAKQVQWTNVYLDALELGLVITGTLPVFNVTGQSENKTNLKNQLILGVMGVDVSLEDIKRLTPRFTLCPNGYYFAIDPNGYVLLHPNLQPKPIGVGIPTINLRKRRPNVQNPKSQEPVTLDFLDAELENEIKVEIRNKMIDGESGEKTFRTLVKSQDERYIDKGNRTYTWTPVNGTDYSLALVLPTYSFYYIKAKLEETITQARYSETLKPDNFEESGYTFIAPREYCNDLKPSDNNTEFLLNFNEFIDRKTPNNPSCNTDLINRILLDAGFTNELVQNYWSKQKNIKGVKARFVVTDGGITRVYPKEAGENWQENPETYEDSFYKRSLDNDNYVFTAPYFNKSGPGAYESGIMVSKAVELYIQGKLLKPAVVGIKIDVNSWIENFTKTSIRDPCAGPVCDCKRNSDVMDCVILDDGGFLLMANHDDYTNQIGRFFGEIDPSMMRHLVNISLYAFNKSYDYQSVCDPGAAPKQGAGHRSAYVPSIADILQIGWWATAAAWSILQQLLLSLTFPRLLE
Put plainly: Puff NMDAR currents of hippocampal CA1 neurons, oxygen-glucose deprivation (OGD). As to conditions: gabapentin 30 or 100 μM, 60 min. How it is done:
Brain slice preparation and recording. The tissues containing the hippocampus were sliced sagittally (300 μm thick) using a vibratome. […] NMDAR currents of pyramidal neurons in the hippocampal CA1 region were recorded by puff application of 100 μM NMDA directly to the recorded neuron at a holding potential of −60 mV.

T1 sequence (Q00959 23-1464, other chains not shown): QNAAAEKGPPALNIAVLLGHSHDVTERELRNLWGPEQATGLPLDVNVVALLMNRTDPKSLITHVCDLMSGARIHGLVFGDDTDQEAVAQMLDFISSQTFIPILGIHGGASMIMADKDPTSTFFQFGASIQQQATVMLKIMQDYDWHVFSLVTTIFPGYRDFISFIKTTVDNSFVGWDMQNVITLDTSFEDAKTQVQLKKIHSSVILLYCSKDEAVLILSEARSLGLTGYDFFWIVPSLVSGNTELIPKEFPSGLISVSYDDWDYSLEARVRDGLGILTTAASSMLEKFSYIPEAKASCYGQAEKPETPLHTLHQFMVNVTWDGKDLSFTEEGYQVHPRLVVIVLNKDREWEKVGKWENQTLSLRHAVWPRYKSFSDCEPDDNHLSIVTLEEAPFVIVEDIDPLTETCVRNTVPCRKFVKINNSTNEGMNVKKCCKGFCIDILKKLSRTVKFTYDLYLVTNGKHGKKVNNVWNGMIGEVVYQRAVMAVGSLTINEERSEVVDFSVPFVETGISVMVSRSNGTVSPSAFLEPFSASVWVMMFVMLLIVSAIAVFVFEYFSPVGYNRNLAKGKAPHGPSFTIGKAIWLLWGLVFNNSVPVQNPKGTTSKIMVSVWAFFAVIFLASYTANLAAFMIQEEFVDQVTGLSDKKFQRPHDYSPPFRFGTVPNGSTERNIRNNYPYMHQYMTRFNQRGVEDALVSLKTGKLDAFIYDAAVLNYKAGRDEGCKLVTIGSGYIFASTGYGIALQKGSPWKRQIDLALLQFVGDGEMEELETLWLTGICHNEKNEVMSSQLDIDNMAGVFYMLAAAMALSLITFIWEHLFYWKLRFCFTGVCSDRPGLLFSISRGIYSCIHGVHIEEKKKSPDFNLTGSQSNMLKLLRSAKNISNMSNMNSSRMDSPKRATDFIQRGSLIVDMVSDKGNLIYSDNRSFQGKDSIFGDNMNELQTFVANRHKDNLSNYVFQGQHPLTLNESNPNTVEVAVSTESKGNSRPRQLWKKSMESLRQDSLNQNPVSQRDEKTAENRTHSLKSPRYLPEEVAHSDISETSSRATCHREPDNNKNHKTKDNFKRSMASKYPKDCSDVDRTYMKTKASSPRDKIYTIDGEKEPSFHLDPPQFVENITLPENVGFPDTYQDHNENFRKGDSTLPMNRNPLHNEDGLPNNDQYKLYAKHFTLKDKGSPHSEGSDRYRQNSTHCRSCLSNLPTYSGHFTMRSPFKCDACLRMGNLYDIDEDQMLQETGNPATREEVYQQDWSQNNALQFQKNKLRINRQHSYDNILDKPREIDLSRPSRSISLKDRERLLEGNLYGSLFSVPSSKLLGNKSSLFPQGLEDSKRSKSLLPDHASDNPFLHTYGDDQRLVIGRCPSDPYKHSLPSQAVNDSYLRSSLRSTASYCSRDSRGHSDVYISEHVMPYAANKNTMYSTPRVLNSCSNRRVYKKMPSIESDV
T3 sequence (O08532 25-956 limits assumed): as the sequence (O08532 25-956 limits assumed, other chains not shown) above
T3 sequence (O55017 whole entry): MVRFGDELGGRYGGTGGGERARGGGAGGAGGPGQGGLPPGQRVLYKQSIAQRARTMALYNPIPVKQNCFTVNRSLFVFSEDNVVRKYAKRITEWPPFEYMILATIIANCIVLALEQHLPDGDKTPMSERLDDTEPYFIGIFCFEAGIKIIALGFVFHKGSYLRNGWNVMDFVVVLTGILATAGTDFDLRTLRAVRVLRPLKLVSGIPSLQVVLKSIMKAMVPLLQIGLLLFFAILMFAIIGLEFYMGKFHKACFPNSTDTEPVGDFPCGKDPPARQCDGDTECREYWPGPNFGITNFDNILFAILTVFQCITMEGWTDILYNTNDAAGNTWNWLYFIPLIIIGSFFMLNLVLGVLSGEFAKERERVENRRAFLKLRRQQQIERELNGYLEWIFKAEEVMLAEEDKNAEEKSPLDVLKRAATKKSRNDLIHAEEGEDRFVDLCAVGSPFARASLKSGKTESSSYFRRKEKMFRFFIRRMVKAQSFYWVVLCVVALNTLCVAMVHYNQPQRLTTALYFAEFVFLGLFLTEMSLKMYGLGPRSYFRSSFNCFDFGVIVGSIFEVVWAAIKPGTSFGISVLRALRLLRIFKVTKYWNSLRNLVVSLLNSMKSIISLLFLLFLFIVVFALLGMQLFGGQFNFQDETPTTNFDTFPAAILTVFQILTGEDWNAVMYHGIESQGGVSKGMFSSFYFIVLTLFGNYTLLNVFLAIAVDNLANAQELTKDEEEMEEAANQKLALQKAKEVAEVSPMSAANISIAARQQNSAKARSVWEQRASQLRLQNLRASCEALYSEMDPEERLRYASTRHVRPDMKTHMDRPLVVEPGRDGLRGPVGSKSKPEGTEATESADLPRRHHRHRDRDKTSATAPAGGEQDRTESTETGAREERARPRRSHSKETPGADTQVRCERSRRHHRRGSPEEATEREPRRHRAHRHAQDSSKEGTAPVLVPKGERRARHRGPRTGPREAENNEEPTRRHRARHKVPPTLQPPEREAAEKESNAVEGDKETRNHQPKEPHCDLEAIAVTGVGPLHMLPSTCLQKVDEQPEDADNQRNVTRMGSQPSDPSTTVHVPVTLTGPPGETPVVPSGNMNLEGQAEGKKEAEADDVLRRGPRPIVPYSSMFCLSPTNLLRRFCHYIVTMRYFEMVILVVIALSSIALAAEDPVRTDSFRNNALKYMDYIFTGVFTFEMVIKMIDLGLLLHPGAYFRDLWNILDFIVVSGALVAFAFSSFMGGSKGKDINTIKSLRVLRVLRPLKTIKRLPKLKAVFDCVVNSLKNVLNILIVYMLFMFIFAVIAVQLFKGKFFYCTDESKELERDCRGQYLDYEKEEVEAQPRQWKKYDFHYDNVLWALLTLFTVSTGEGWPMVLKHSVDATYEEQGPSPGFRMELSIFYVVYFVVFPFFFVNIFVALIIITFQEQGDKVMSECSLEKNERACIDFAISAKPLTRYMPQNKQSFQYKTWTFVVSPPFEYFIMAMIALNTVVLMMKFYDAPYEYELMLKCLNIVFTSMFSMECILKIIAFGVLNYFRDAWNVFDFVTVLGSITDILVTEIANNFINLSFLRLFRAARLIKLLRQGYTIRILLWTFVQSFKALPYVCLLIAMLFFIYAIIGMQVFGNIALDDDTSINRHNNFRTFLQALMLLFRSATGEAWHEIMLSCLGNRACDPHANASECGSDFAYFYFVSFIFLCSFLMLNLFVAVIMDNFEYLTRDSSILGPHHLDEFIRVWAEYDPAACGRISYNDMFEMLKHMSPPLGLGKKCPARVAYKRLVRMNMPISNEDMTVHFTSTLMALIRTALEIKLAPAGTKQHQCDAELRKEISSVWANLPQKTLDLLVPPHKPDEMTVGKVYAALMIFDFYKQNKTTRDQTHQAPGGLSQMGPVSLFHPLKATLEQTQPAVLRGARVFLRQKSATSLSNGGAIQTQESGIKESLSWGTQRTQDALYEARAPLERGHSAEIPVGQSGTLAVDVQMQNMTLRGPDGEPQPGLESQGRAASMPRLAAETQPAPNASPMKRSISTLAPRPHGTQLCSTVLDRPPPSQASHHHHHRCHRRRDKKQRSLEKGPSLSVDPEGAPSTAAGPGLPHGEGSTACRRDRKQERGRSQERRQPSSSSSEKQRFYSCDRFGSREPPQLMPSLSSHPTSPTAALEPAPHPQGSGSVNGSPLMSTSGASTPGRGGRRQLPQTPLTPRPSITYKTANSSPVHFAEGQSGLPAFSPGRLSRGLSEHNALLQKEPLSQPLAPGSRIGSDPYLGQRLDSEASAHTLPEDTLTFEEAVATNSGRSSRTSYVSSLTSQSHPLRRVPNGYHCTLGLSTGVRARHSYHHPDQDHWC

For the sequence “YGRKKRRQRRRVSGLNPSLWSIFGLQFILLWLVSGSRHYLW (a2d1 peptide) [α2δ-1Tat peptide, 30-amino-acid peptide mimicking the C-terminal domain of α2δ-1 fused to the cell-penetrating peptide Tat]”, the “direct interaction between α2δ-1 and GluN1” value with α2δ-1-GluN1 interaction is “disrupted”. Also, the “increased pre- and postsynaptic NMDAR activity of spinal dorsal horn neurons” value in assay [1] was “normalized”. In the assay with α2δ-1-Cav2.2 association, the “α2δ-1-Cav2.2 association in brain tissues subjected to OGD” value is listed as “had no effect”. Moreover, the “OGD-induced increase in the puff NMDAR currents” value in assay [2] (5 min OGD, peptides 1 μM) was “failed to increase”. For the same sequence, in assay [2] (before OGD, peptide 1 μM), the “basal puff NMDAR currents of hippocampal CA1 pyramidal neurons” value is recorded as “had no effect”.
